In patent US20250051445A1:
Where a chain is given by its changes, count along the chain named.

B1: TPP-1391 Fab fragment (Fab, V domains shown)
VH: EVQLVQSGAEVKKPGASVKVSCKASGYKFTSYVMHWVRQAPGQGLEWMGYINPYRDVTKYAEKFQGRVTLTSDTSTSTAYMELSSLRSEDTAVYYCARGSYYDYEGFVYWGQGTLVTVSS
VL: QIQMTQSPSSLSASVGDRVTITCSATSSVSYMHWYQQKPGKAPKRWIYDTSKLASGVPSRFSGSGSGTDYTLTISSLQPEDAATYYCQQWSSNPLTFGGGTKVEIKR
B2: TPP-1367 Fab fragment (Fab, V domains shown)
VH: B1 VH with R55N, Y94H
VL: B1 VL with S55R
B3: TPP-1393 Fab fragment (Fab, V domains shown)
VH: B1 VH with R55N
VL: B1 VL with S55R
B4: TPP-1387 Fab fragment (Fab, V domains shown)
VH: B1 VH with R55N
VL: B1 VL
B5: TPP-1389 Fab fragment (Fab, V domains shown)
VH: B1 VH with S31R, R55N
VL: B1 VL with S55R
B6: TPP-1372 Fab fragment (Fab, V domains shown)
VH: B1 VH with R55K
VL: B1 VL with S55R
B7: TPP-1392 Fab fragment (Fab, V domains shown)
VH: B1 VH with Y54R, R55N
VL: B1 VL with S55R
B8: TPP-1381 Fab fragment (Fab, V domains shown)
VH: B1 VH with R55K, Y94H
VL: B1 VL
B9: TPP-1388 Fab fragment (Fab, V domains shown)
VH: B1 VH with S31R, R55N
VL: B1 VL
B10: TPP-1363 Fab fragment (Fab, V domains shown)
VH: B1 VH with R55K
VL: B1 VL
B11: TPP-1360 Fab fragment (Fab, V domains shown)
VH: B1 VH with S31R, R55N, Y94H
VL: B1 VL
B12: TPP-1390 Fab fragment (Fab, V domains shown)
VH: B1 VH with Y54R, R55N
VL: B1 VL
B13: TPP-1384 Fab fragment (Fab, V domains shown)
VH: B1 VH with R55N, Y94H
VL: B1 VL with S55K
B14: TPP-1377 Fab fragment (Fab, V domains shown)
VH: B1 VH with S31K, R55N, Y94H
VL: B1 VL
B15: TPP-1380 Fab fragment (Fab, V domains shown)
VH: B1 VH with Y94H
VL: B1 VL
B16: TPP-1376 Fab fragment (Fab, V domains shown)
VH: B1 VH with T30K, R55N, Y94H
VL: B1 VL
B17: TPP-1375 Fab fragment (Fab, V domains shown)
VH: B1 VH with T30R, R55N, Y94H
VL: B1 VL
B18: TPP-1378 Fab fragment (Fab, V domains shown)
VH: B1 VH with Y54R, R55N, Y94H
VL: B1 VL
B19: TPP-1379 Fab fragment (Fab, V domains shown)
VH: B1 VH with Y54K, R55N, Y94H
VL: B1 VL
B20: TPP-1382 Fab fragment (Fab, V domains shown)
VH: B1 VH with R55N, Y94H
VL: B1 VL with S30R
B21: TPP-1383 Fab fragment (Fab, V domains shown)
VH: B1 VH with R55N, Y94H
VL: B1 VL with S30K
B22: TPP-1374, Fab fragment of BMA031 (V36) (Fab, V domains shown)
VH: B1 VH with R55N, Y94H
VL: B1 VL

The binders below were run against α/β TCR/CD3 complex on Jurkat, Clone E6-1 cells (human) (UniProt P07766) (assay: flow cytometry on Jurkat Clone E6-1 cells, Fab titration 10 µg/ml to 10 ng/ml; EC50 of MFI, fold decrease vs TPP-1374).
UniProt P07766, sequence (P07766 23-207, chain 1 of 4): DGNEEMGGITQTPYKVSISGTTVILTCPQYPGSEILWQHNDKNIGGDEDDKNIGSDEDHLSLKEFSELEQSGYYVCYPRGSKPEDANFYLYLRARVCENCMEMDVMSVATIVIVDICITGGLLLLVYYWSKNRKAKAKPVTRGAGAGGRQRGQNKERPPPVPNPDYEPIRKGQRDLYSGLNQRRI
UniProt P07766, sequence (P09693 23-182, chain 2 of 4, further chain): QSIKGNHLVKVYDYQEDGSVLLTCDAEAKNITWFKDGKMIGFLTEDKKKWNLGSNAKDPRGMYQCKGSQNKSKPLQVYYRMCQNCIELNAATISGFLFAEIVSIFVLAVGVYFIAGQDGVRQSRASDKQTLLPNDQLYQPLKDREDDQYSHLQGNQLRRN
UniProt P07766, sequence (P04234 22-171, chain 3 of 4, further chain): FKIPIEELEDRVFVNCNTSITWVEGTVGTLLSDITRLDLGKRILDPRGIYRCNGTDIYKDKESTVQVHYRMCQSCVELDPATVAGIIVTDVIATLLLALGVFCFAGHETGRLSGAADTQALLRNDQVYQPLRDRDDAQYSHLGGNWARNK
UniProt P07766, sequence (P20963 22-164, chain 4 of 4, further chain): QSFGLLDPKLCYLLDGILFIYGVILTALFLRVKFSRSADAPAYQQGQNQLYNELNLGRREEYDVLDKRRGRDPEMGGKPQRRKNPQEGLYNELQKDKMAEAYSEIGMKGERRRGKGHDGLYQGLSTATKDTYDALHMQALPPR

Binder | fold decrease in EC50 [fold]
B1 | 4.7
B2 | 8.8
B3 | 13.9
B4 | 3.2
B5 | 31.8
B6 | 21.5
B7 | 16.6
B8 | 8.2
B9 | 8.1
B10 | 7.3
B11 | 5.7
B12 | 5.5
B13 | 4.1
B14 | 4.1
B15 | 2.9
B16 | 2.8
B17 | 2.1

The binders below were run against α/β TCR/CD3 complex on Jurkat, Clone E6-1 cells (human) (UniProt P07766) (assay: flow cytometry on Jurkat Clone E6-1 cells, Fab titration 10 µg/ml to 10 ng/ml; AUC of MFI vs log concentration, gain vs TPP-1374).

Binder | % gain in binding AUC [%]
B1 | 245
B2 | 220
B3 | 226
B4 | 14
B5 | 423
B6 | 246
B7 | 813
B8 | 98
B9 | 273
B10 | 380
B11 | 144
B12 | 270
B13 | 203
B14 | 56
B15 | 18
B16 | 83
B17 | 87
B18 | 79
B19 | 1
B20 | -66
B21 | -73

These binders were tested against α/β TCR/CD3 complex on Jurkat, Clone E6-1 cells (human) (UniProt P07766) (assay: flow cytometry on Jurkat Clone E6-1 cells, Fab titration 10 µg/ml to 10 ng/ml; AUC of MFI vs log concentration; the reference itself, set to zero).

Binder | % gain in binding AUC [%]
B22 | 0
